Experiments:
Experiment in all cases: Western blot of platelet-poor plasma; primary antibody murine 5C12
cattle FXII = target: T1, cattle FXII (cattle, UniProt P98140 20-612)
T1 construct: mature; Plasma protein
T1 sequence (looked up): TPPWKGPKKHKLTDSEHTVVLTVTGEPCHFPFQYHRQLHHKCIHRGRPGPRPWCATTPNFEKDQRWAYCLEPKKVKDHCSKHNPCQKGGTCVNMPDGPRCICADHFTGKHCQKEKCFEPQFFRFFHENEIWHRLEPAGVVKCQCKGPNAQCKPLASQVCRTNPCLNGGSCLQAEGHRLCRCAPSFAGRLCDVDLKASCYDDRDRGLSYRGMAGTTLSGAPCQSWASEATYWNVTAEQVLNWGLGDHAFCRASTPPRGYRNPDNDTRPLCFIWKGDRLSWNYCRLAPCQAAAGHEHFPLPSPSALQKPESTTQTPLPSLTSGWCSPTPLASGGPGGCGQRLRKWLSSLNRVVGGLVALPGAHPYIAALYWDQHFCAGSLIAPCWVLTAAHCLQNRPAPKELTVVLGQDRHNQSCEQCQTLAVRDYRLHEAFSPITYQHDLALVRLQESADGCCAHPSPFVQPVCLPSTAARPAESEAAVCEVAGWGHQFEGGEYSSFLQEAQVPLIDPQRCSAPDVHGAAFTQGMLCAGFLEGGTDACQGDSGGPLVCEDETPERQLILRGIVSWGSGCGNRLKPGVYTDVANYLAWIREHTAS
Description: (§1) FIG. 3A-3C: Species specificity of 5C12. (FIG. 3A) Western blots of platelet poor plasmas from different species (indicated above each lane) size fractionated by SDS-PAGE […]. Species included in alphabetical order: African green monkey, baboon, beagle, cat, cattle, chicken, cynomolgus monkey, dog, elephant, giant anteater, horse, human, human deficient in FXII, llama, marmoset, pig, rabbit, raccoon, rat, red kangaroo, rhesus macaque and tiger. Human plasma and human deficient in FXII plasma were used in all gels as a positive and negative control, respectively. […] 5C12 also recognizes both the alpha (comprising both the light and heavy chain of FXII) and the beta (comprising only the light chain and a nonapeptide fragment of the heavy chain) form of activated FXII (FXIIa) (FIG. 3C). The primary antibody for all Western blots was murine 5C12, the secondary antibody was goat-anti-mouse polyclonal.

pig FXII = target: T2, pig FXII (pig, UniProt O97507 20-616)
T2 construct: mature; Plasma protein
T2 sequence (looked up): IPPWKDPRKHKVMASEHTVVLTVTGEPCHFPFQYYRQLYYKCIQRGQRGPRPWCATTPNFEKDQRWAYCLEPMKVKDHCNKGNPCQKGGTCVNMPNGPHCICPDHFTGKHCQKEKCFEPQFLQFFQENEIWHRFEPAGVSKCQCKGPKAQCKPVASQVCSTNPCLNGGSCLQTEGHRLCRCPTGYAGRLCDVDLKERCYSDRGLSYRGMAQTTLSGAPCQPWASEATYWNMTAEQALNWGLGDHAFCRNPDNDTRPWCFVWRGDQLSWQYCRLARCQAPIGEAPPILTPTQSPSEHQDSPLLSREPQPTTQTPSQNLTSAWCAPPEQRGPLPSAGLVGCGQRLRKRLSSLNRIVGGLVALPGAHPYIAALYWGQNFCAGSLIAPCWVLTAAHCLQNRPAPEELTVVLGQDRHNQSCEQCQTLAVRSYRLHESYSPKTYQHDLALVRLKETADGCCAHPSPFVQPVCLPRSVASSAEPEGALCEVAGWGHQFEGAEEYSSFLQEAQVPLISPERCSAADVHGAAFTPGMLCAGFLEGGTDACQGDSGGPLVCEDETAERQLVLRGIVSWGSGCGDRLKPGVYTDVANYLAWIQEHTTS
Description: as §1

rabbit FXII = target: T3, rabbit FXII (rabbit, UniProt G1SIB7 20-617)
T3 construct: Plasma protein
T3 sequence: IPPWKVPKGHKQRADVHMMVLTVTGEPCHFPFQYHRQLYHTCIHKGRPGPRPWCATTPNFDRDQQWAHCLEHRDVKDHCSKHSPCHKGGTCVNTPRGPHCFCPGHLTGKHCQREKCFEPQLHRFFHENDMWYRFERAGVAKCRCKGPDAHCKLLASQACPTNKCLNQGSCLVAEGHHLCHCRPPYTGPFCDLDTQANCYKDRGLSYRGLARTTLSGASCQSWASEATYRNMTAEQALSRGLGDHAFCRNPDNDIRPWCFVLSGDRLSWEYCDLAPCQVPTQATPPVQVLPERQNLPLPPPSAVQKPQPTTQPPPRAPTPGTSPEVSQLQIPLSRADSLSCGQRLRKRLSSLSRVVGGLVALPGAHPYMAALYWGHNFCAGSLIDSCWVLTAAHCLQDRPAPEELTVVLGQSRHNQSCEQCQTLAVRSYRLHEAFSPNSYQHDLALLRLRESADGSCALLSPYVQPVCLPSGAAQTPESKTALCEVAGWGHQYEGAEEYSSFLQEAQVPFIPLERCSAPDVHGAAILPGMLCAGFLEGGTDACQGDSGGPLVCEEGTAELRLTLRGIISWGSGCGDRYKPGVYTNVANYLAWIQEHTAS
Description: as §1

rhesus macaque FXII = target: T4, rhesus macaque FXII (rhesus macaque, UniProt F7FY72 20-615)
T4 construct: Plasma protein
T4 sequence: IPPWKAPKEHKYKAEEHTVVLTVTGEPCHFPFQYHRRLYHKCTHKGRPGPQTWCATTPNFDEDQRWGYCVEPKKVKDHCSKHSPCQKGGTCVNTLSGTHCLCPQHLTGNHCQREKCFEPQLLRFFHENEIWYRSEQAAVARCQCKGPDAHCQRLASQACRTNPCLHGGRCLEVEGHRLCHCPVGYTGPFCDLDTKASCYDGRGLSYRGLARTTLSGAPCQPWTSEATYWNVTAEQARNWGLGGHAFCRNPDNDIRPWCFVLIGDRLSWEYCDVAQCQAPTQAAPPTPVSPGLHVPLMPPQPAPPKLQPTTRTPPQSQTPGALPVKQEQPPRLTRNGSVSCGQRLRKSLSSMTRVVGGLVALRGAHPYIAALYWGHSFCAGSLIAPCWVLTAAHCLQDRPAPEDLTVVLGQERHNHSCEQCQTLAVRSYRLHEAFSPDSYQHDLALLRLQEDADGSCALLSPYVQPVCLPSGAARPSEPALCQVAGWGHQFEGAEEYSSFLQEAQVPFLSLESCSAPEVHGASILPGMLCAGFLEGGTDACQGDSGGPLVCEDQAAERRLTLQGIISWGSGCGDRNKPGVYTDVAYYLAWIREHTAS
Description: as §1

Measured: binding result

B1: mouse monoclonal antibody 5C12 (antibody, mouse IgG1, kappa, V domains shown)
VH: DVQLQESGPDLVKPSQSLSLTCTVTGYSITSGYSWHWIRQFPGNNLEWMGYIQYSGNTNSNPSLKSRISITRDTSKNQFFLHLNSVTTEDTATYYCARWGSFDYWGQGTTLTVSS
VL: QIVLTQSPAIMSASPGEKVTMTCSASSSVNYMHWYQQKSGTSPKRWIYDTSKLASGVPARFSGSGSGTSYSLTISSMEAGDAATYYCQQWSGNPPTFGGGTILEIKR
notes: Purified from hybridoma; also called AB053; 5C12 MAb
no binding: all assays above

— patent publication US20220089776A1 (OREGON HEALTH AND SCIENCE UNIVERSITY, published 2022)
